Reference: US20150017651A1 (University of Texas, published 2015)
Where a chain is given by its changes, count along the chain named.

Experiments:
[1] = target: T1, flag-tagged Gli1S84E (human, UniProt P08151 1-1106); test: IP-Western, flag-tagged Gli1S84E transfected into BE3 cells
T1 construct: not shown: flag tag from vector p3flag-CMV10
T1 sequence (looked up): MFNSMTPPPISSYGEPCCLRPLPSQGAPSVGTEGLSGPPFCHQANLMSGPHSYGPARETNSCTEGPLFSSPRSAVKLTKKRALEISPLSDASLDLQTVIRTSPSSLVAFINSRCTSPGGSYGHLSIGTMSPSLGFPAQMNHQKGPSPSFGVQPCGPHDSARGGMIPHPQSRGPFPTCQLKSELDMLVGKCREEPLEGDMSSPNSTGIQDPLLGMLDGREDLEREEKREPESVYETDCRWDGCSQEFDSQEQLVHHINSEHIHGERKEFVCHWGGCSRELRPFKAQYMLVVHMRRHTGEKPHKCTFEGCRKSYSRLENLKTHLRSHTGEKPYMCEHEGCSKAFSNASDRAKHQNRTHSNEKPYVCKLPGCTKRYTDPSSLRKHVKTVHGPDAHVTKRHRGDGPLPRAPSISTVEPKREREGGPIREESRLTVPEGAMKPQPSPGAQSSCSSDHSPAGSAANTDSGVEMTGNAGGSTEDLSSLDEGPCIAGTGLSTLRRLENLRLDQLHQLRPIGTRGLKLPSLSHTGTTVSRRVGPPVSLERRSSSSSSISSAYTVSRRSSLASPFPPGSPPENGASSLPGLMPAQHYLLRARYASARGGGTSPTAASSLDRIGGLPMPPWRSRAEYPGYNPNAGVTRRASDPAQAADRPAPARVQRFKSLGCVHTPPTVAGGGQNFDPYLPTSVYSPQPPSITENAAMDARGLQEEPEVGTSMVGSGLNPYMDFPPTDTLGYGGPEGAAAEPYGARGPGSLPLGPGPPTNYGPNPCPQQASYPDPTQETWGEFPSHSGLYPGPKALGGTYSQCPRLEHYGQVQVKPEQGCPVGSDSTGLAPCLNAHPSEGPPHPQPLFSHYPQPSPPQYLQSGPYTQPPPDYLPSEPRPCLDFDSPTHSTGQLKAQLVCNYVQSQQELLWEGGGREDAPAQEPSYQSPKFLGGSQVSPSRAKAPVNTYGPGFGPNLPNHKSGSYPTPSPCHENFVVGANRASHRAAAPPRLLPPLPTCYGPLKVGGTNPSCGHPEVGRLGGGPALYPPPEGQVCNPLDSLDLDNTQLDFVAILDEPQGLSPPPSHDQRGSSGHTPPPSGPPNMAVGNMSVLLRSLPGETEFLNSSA
Protocol: FIGS. 13A-13K. related to FIG. 5. […] FIG. 13A. Luciferase assay of Gli reporter in the stable clones treated by TNFα alone (5 ng/mL) or TNFα plus rapamycin (100 nM). Error bars represent SD (n=3). FIG. 13B. Gli1 immunofluorescence staining in several BE3 stable clones with TNFα treatment. Scale bar=100 μm for original picture and 25 μm for inset. FIG. 13C. The regulation of p-Gli1 by TNFα alone or together with rapamycin (10, 50, and 100 nM) in the BE3 stable clone. FIG. 13D. MTT assay of the various Gli1 stable clones. All cells were counted, and then 3,000 cells were seeded in each well of a 96-well plate. Error bars represent SD (n=3). FIG. 13E. Soft-agar assay of the various Gli1 stable clones. All cells were counted, and then 1,000 cells were mixed with agarose for each well of a 24-well plate. Left, representative microscopic images. Right, quantitation of colony formation. Error bars represent SD (n=3). FIG. 13F. Invasion assay of the various Gli1 stable clones. All cells were counted, and then 1,000 cells were seeded on matrigel in transwells. Left, representative microscopic images from the bottom side of transwell membranes. Right, quantitation of invasive cells. Error bars represent SD (n=3). FIGS. 13G-13I. The assays of MTT (G), soft agar (H), and invasion (I) using the BE3 stable clones treated with TNFα.

[2] = target: T2, flag-tagged wild-type Gli1 (human, UniProt P08151 1-1106); test: IP-Western, flag-tagged Gli1WT transfected into BE3 cells
T2 construct: Transiently expressed in BE3 cells without TNFα stimulation; also called flag-Gli1WT; flag-Gli1; not shown: flag tag from vector p3flag-CMV10
T2 sequence (looked up): T1 sequence (looked up) with E84S

B1: SuFu (other, human, UniProt Q9UMX1 1-484, looked up)
chain: MAELRPSGAPGPTAPPAPGPTAPPAFASLFPPGLHAIYGECRRLYPDQPNPLQVTAIVKYWLGGPDPLDYVSMYRNVGSPSANIPEHWHYISFGLSDLYGDNRVHEFTGTDGPSGFGFELTFRLKRETGESAPPTWPAELMQGLARYVFQSENTFCSGDHVSWHSPLDNSESRIQHMLLTEDPQMQPVQTPFGVVTFLQIVGVCTEELHSAQQWNGQGILELLRTVPIAGGPWLITDMRRGETIFEIDPHLQERVDKGIETDGSNLSGVSAKCAWDDLSRPPEDDEDSRSICIGTQPRRLSGKDTEQIRETLRRGLEINSKPVLPPINPQRQNGLAHDRAPSRKDSLESDSSTAIIPHELIRTRQLESVHLKFNQESGALIPLCLRGRLLHGRHFTYKSITGDMAITFVSTGVEGAFATEEHPYAAHGPWLQILLTEEFVEKMLEDLEDLTSPEEFKLPKEYSWPEKKLKVSILPDVVFDSPLH
notes: also called suppressor of fused
[1]
  binding result: binds
[2]
  binding result: binds
